Source: patent US12497460B2, “Anti-MSR1 antibodies and methods of use thereof” (REGENERON PHARMACEUTICALS, INC., priority 2018, dated 2025)

T1: HEK293.Myc.hMSR1 cells (human MSR1) (Homo sapiens, UniProt P21757)
T1 construct: expressed in transfected cells; host or cells: HEK293 (lentiviral transduction, hygromycin selection)
T1 sequence (P21757 1-451): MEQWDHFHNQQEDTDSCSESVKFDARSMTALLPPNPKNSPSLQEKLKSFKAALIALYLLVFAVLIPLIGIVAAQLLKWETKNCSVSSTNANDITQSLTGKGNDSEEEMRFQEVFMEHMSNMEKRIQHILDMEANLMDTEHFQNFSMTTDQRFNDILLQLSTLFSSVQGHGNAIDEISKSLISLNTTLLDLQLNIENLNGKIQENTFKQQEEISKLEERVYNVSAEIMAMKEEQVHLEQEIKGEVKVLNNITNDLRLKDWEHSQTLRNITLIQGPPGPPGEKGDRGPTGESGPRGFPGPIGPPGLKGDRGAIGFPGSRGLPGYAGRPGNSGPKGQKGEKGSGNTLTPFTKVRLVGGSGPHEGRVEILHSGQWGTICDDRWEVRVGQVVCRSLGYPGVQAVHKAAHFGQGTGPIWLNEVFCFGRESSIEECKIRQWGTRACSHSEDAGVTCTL

T2: Ac-LDL binding to His9-hMSR1 (Homo sapiens, UniProt P21757)
T2 construct: human MSR1 extracellular domain expressed with a N-terminal nonahistidine tag; His9 (nonahistidine) (N); purchased R&D Systems 2708-MS
T2 sequence (P21757 77-451 limits assumed): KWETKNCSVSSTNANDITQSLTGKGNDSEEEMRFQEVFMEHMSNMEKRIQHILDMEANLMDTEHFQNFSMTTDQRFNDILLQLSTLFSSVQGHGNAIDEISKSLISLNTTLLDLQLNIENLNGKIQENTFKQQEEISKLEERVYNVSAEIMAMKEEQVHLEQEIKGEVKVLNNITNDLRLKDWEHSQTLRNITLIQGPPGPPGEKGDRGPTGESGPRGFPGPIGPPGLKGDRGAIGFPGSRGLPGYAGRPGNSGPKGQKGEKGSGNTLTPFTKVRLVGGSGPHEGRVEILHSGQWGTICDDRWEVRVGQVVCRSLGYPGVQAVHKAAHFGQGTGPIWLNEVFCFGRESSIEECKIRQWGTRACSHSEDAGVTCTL

T3: Ox-LDL binding to His9-hMSR1 (Homo sapiens, UniProt P21757)
T3 construct: human MSR1 extracellular domain expressed with a N-terminal nonahistidine tag; His9 (nonahistidine) (N); purchased R&D Systems 2708-MS
T3 sequence (P21757 77-451 limits assumed): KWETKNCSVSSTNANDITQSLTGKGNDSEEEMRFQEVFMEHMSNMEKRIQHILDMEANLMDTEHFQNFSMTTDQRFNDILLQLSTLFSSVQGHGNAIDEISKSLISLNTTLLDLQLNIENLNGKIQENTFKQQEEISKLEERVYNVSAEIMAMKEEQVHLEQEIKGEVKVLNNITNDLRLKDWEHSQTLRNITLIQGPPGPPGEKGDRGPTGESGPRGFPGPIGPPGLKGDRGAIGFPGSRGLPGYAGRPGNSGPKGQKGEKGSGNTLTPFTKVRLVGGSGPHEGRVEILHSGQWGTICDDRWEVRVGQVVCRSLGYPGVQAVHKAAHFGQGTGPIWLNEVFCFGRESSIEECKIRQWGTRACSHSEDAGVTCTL

B1: H1H21227N-N297Q: "modified versions of 21227N (H1H21227N-N297Q and H1H21227N-N297D)"; anti-MSR1 antibody "with a N297Q single point mutation" (antibody, V domains shown)
VH: QVQLVQSGAEVKKPGASVKVSCKVSGYTLTELSIHWVRQVPGKGLEWMGGFDPEEGETIFAQEFRDRVTLTEDTSPDTAYMELSSLKSEDAAVYYCTTPRYCNNGICYDYWGQGTLVTVSS
VL: DIQMTQSPSSLSASVGDRVTITCRASQSISNYLNWYQQKPGKAPKLLIYTASSLQSGVPSRFSGSGSGTDFTLTISSLQTEDFATYYCQQSYSNFPITFGQGTRLEIKR
B2: H1H21231N-N297Q: modified version of "21231N (H1H21231N-N297Q) anti-MSR1 antibodies" with "a N297Q single point mutation" (antibody, V domains shown)
VH: EVQLVESGGGLVQPGGSLRLSCAASGFTFSDHYMDWVRQAPGKGLEWVGRTRNKANSHTTEYTASVTGRFTISRDDSRNSLYLQMNSLKTEDTAVYYCVRAGIIGTLFDYWGQGTLVTVSS
VL: DIQMTQFPSSLSASVGDRVTITCRASQSISSFLNWFQQKPGKAPKFLIYAASSLQSGVPSRFSGSGSGTDFTLTISSLQPEDFATYYCQQSYSSPPITFGQGTRLEIKR
B3: H1H21231N: "anti-MSR1 antibodies ... (21227N, 21231N, 21234N) were produced with the original human Fcγ portion"; "H1H" = human IgG1 Fc (antibody, V domains shown)
VH: EVQLVESGGGLVQPGGSLRLSCAASGFTFSDHYMDWVRQAPGKGLEWVGRTRNKANSHTTEYTASVTGRFTISRDDSRNSLYLQMNSLKTEDTAVYYCVRAGIIGTLFDYWGQGTLVTVSS
VL: DIQMTQFPSSLSASVGDRVTITCRASQSISSFLNWFQQKPGKAPKFLIYAASSLQSGVPSRFSGSGSGTDFTLTISSLQPEDFATYYCQQSYSSPPITFGQGTRLEIKR
modifications: human IgG1 Fc
notes: "anti-MSR1 antibodies ; (21227N, 21231N, 21234N) were produced with the original human Fcγ portion"; "H1H" = human IgG1 Fc
B4: H1H21227N: "anti-MSR1 antibodies ... (21227N, 21231N, 21234N) were produced with the original human Fcγ portion"; "H1H" = human IgG1 Fc (antibody, V domains shown)
VH: QVQLVQSGAEVKKPGASVKVSCKVSGYTLTELSIHWVRQVPGKGLEWMGGFDPEEGETIFAQEFRDRVTLTEDTSPDTAYMELSSLKSEDAAVYYCTTPRYCNNGICYDYWGQGTLVTVSS
VL: DIQMTQSPSSLSASVGDRVTITCRASQSISNYLNWYQQKPGKAPKLLIYTASSLQSGVPSRFSGSGSGTDFTLTISSLQTEDFATYYCQQSYSNFPITFGQGTRLEIKR
modifications: human IgG1 Fc
notes: as for B3
B5: H1H21227N-N297D: "The 21227N antibody was also produced as a third version with a N297D mutation" (antibody, V domains shown)
VH: QVQLVQSGAEVKKPGASVKVSCKVSGYTLTELSIHWVRQVPGKGLEWMGGFDPEEGETIFAQEFRDRVTLTEDTSPDTAYMELSSLKSEDAAVYYCTTPRYCNNGICYDYWGQGTLVTVSS
VL: DIQMTQSPSSLSASVGDRVTITCRASQSISNYLNWYQQKPGKAPKLLIYTASSLQSGVPSRFSGSGSGTDFTLTISSLQTEDFATYYCQQSYSNFPITFGQGTRLEIKR

Legend:
[1] = target: T1, HEK293.Myc.hMSR1 cells (human MSR1); experiment: Electrochemiluminescence antibody binding assay on MSR1-expressing cells; assay type: cell-based
[2] = tested on: HEK293.mfMSR1 cells (monkey MSR1); experiment: as above; assay type: cell-based, Macaca fascicularis
[3] = target: T2, Ac-LDL binding to His9-hMSR1; experiment: Competition sandwich ELISA, blocking of Ac-LDL binding; settings: 50 pM Ac-LDL
Protocol: (§1) The ability of anti-MSR1 antibodies disclosed herein to block the binding of various ligands to human MSR1 was measured using three competition sandwich ELISA assays. The ligands used in the assays were: (1) acetylated LDL (Ac-LDL), (2) oxidized LDL (Ox-LDL), and (3) advanced glycation end-products of bovine serum albumin (AGE-BSA).
(§2) Anti-MSR1 antibodies or isotype control antibodies were serially diluted as appropriate for each tested ligand and added in duplicate for each serial dilution set to microtiter plates coated with His9-hMSR1. Buffer alone was also added to wells on each coat. […] This assay was conducted in four different assay runs.
(§3) Data analysis was performed using a sigmoidal dose-response model within Prism™ software (GraphPad). Percent blockade at maximum concentration of the antibody tested in each assay was calculated as an indicator of the ability of the antibodies to block the binding of Ac-LDL, Ox-LDL or biot-AGE-BSA to His9-hMSR1 on the plate relative to the baseline of the assay. In the calculation, binding signal of the same concentrations of Ac-LDL, Ox-LDL, or biot-AGE-BSA used for the assays in the absence of antibody was referenced as 100% binding or 0% blocking, while the baseline of the assay, defined as binding signal of the sample of buffer without MSR1 ligands or antibody, was referenced as 0% binding or 100% blocking. The maximum percent blockade at the highest concentration of antibody tested in each assay are reported for all antibodies.

[4] = target: T3, Ox-LDL binding to His9-hMSR1; experiment: Competition sandwich ELISA, blocking of Ox-LDL binding; settings: antibody 500 nM, Ox-LDL 10 nM
Protocol: as §1, §2, §3

| Molecule | Ratio of 11 nM Antibody Binding Signal (RLU) to isotype control, HEK293.Myc.hMSR1 [1] | Ratio of 11 nM Antibody Binding Signal (RLU) to isotype control, HEK293.mfMSR1 [2] | Anti-MSR1 antibody (100 nM) blocking of Ac-LDL binding to His9-hMSR1 % Blocking [3] [%] | anti-MSR1 antibody blocking of Ox-LDL binding to His9-hMSR1 % Blocking [4] [%] |
| --- | --- | --- | --- | --- |
| B1 | 37 | 23 | 105 | 97 |
| B2 |  |  | −60 | 26 |
| B3 | 61 | 75 | −62 | 22 |
| B4 | 37 | 26 | 105 | 100 |
| B5 | 34 | 25 | 101 | 99 |
